# B1: HDAC6 (parent)
# chain: KMKTRELHRESSNFDSIYICPSTF
# B2: CCNC (parent)
# chain: QSSHYLQWILDKQDLLKERQKDLK
# Variants of: B1
# Test: protein stability index of a GFP-peptide fusion (GPS, HEK-293T) (PSI 1-6); higher = more stable
# Conditions: c terminus: a fixed tail appended
# 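Note: lentivirally expressed fusions sorted by FACS into six bins by GFP to DsRed ratio, PSI derived from sequencing read proportions per bin multiplied by bin number.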
row,Variant,protein stability index
1,S16H,1.99
2,S16Q,1.91
3,S16L,1.74
4,S16G,2.14
5,S16R,2.83
6,S16P,2.47
7,S16T,2.62
8,S16C,1.76
9,S16V,2.12
10,S16E,3.02
11,S16D,2.68
12,S16M,1.66
13,S16N,1.31
14,S16Y,1.85
15,S16K,2.29
16,S16A,1.88
17,S16F,2.08
18,S16I,1.54
19,S22C,1.85
20,S22K,3.33
21,S22G,2.06
22,S22W,3.05
23,S22E,2.66
24,S22Q,1.78
25,S22A,2.14

row,Variant,protein stability index
1,S22M,1.42
2,S22I,1.65
3,S22F,2.19
4,S22R,1.83
5,S22V,1.6
6,S22Y,1.98
7,S22D,2.76
8,S22H,2.09
9,S22P,2.65
10,S22L,1.42
11,S22N,2.13
12,S22T,1.74
13,F24G,3.15
14,F24E,3.87
15,F24M,2.65
16,F24S,2.96
17,F24N,2.95
18,F24R,2.98
19,F24T,3.65
20,F24V,2.82
21,F24P,2.75
22,F24L,2.69
23,F24C,2.97
24,F24A,3.73
25,F24I,2.31

row,Variant,protein stability index
1,F24K,3.36
2,F24W,2.65
3,F24D,3.99
4,F24Y,2.88
5,F24H,2.76
6,F24Q,2.62
7,P21T,1.54
8,P21S,1.74
9,P21Q,1.94
10,P21N,2.37
11,P21D,2.91
12,P21K,2.32
13,P21V,2.33
14,P21E,1.91
15,P21F,2.44
16,P21G,1.95
17,P21C,2.71
18,P21H,1.34
19,P21A,1.77
20,P21R,1.78
21,D15V,2.11
22,D15R,1.89
23,D15Y,1.63
24,D15S,2.04
25,D15W,2.21

row,Variant,protein stability index
1,D15Q,1.96
2,D15T,1.9
3,I17C,2.49
4,I17Y,2.11
5,I17R,2.97
6,I17T,3.25
7,I17V,2.27
8,I17H,3.15
9,I17K,3.31
10,I17F,1.85
11,I17S,2.45
12,I17P,2.41
13,I17M,2.57
14,I17W,2.06
15,I17E,3.19
16,I17N,2.9
17,I17D,3.75
18,I17G,2.51
19,I17A,2.96
20,I17L,2.13
21,I17Q,2.48
22,Y18S,2.72
23,Y18D,3.8
24,Y18R,2.52
25,Y18A,4.07

row,Variant,protein stability index
1,Y18C,2.29
2,Y18Q,2.96
3,Y18W,2.38
4,Y18M,2.4
5,Y18N,3.56
6,Y18H,2.41
7,Y18L,2.82
8,Y18K,2.44
9,Y18P,3.33
10,Y18G,3.09
11,Y18F,2.05
12,Y18V,2.86
13,Y18E,3.45
14,Y18I,2.31
15,Y18T,3.32
16,C20Y,2.07
17,C20A,2.86
18,C20R,2.61
19,C20T,2.76
20,C20F,2.21
21,C20P,2.69
22,C20Q,3.13
23,C20V,2.24
24,C20K,2.15
25,C20S,2.48

row,Variant,protein stability index
1,C20D,2.54
2,C20E,3.34
3,C20G,2.22
4,C20L,2.2
5,C20N,3.23
6,C20H,2.94
7,C20I,1.69
8,C20M,2.17
9,I19K,2.94
10,I19F,2.81
11,I19E,3.81
12,I19A,2.74
13,I19R,2.47
14,I19S,2.35
15,I19D,3.44
16,I19N,3.22
17,I19V,2.8
18,I19H,3.1
19,I19G,2.91
20,I19Q,3.2
21,I19T,2.25
22,I19P,3.35
23,I19C,2.34
24,I19W,3.01
25,I19M,1.44

row,Variant,protein stability index
1,I19L,3.14
2,I19Y,2.16
3,T23S,2.59
4,T23V,2.92
5,T23E,1.96
6,T23K,2.25
7,T23W,1.62
8,T23Y,1.83
9,T23R,2.05
10,T23D,2.56
11,T23L,2.21
12,T23M,2.44
13,T23F,1.96
14,T23A,2.16
15,T23G,2.46
16,T23P,2.61
17,T23C,2.5
18,T23N,3
19,T23I,1.71
20,T23H,2.28

# Variants of: B2
# Test: as above
# Conditions: c terminus: a fixed tail appended
row,Variant,protein stability index
1,H4E,3.5
2,H4T,2.79
3,H4V,2.5
4,H4I,2.09
5,H4R,2.39
6,H4A,3
7,H4L,2.34
8,H4F,1.88
9,H4Y,3.21
10,H4K,2.54
11,H4M,3.97
12,H4W,2.65
13,H4C,2.22
14,H4G,3.03
15,H4D,3.55
16,H4P,2.72
17,H4S,3.2
18,H4N,3.27
19,H4Q,2.52
20,Q1P,3.77
21,Q1E,2.72
22,Q1Y,2.53
23,Q1V,2.74
24,Q1N,3.13

row,Variant,protein stability index
1,Q1D,2.94
2,Q1K,2.5
3,Q1W,1.44
4,Q1I,2.28
5,Q1H,2.04
6,Q1R,3.1
7,Q1G,3.6
8,Q1L,2.78
9,Q1C,3.1
10,Q1S,3.16
11,Q1A,2.78
12,Q7A,2.39
13,Q7D,3.9
14,Q7T,3.66
15,Q7Y,2.85
16,Q7V,1.97
17,Q7L,2.22
18,Q7K,2.84
19,Q7F,1.57
20,Q7W,2.1
21,Q7N,2.84
22,Q7G,3.23
23,Q7R,2.37
24,Q7H,3.58

row,Variant,protein stability index
1,Q7E,2.73
2,Q7S,2.65
3,Q7I,1.94
4,Q7C,2.42
5,Q7M,3.79
6,Q7P,3.31
7,Y5A,2.59
8,Y5E,3.21
9,Y5K,3.43
10,Y5V,3.28
11,Y5F,2.77
12,Y5C,3.61
13,Y5Q,4.29
14,Y5W,2.53
15,Y5G,3.74
16,Y5P,4.47
17,Y5N,3.8
18,Y5I,2.81
19,Y5S,4.56
20,Y5L,2.02
21,Y5T,3.7
22,Y5R,3.38
23,Y5H,3.93
24,Y5M,2.83

row,Variant,protein stability index
1,Y5D,4.45
2,S2M,1.49
3,S2T,2.84
4,S2Q,2.9
5,S2I,2.07
6,S2W,2.7
7,S2C,2.27
8,S2R,2.39
9,S2Y,1.96
10,S2V,2.64
11,S2A,2.14
12,S2L,1.95
13,S2N,3.15
14,S2F,1.1
15,S2H,3.02
16,S2K,2.46
17,S2D,3.46
18,S2G,2.78
19,S2P,3.01
20,S2E,3.3
21,L6A,3.83
22,L6H,3.69
23,L6E,5.2
24,L6G,4.11

row,Variant,protein stability index
1,L6S,3.99
2,L6I,2.83
3,L6P,4.53
4,L6W,2.96
5,L6V,3.7
6,L6T,3.2
7,L6R,3.54
8,L6F,3.52
9,L6C,3.71
10,L6Q,3.72
11,L6K,3.92
12,L6D,4.14
13,L6Y,2.77
14,L6N,4.03
15,L6M,3.21
16,I9M,3.53
17,I9E,4.87
18,I9N,4.01
19,I9F,3.98
20,I9D,4.82
21,I9C,3.9
22,I9G,3.67
23,I9K,4.09
24,I9R,4.12

row,Variant,protein stability index
1,I9A,4.27
2,I9H,3.64
3,I9L,3.36
4,I9Q,4.21
5,I9P,4.6
6,I9S,4
7,S3L,1.92
8,S3T,2.42
9,S3D,3.9
10,S3K,2.82
11,S3Q,2.68
12,S3C,3.02
13,S3W,2.32
14,S3H,2.95
15,S3I,2.02
16,S3G,3.39
17,S3E,3.87
18,S3F,1.94
19,S3M,2.38
20,S3N,3.17
21,S3P,3.22
22,S3A,3.9
23,S3V,2.29
24,S3R,3.04

row,Variant,protein stability index
1,S3Y,2.34
2,W8C,3.89
3,W8K,3.87
4,W8N,4.46
5,W8D,4.55
6,W8F,3.77
7,W8M,4.16
8,W8I,3.16
9,W8R,4.18
10,W8H,4.03
11,W8Y,4.5
12,W8S,4.09
13,W8G,3.94
14,W8V,3.52
15,W8Q,3.96
16,W8L,3.41
17,W8E,4.35
18,W8A,4.42
19,W8T,4.39
20,W8P,4.29
